In article PMC4337610:

Legend:
[1] = target: Hfq wild-type (Escherichia coli) (UniProt P0A6X3); experiment: X-ray crystallography; settings: BLI: 25 mM Tris pH 7.5, 50 mM NaCl, 50 mM KCl, 1 mM MgCl2, 1 mM DTT, 0-500 nM Hfq, temperature not stated; EMSA: 1x structure buffer, 1 ug yeast RNA, 37 C …
[2] = target: Hfq wild-type (Escherichia coli) (UniProt P0A6X3); experiment: EMSA; settings: BLI: 25 mM Tris pH 7.5, 50 mM NaCl, 50 mM KCl, 1 mM MgCl2, 1 mM DTT, 0-500 nM Hfq, temperature not stated; EMSA: 1x structure buffer, 1 ug yeast RNA, 37 C …
[3] = target: Hfq wild-type (Escherichia coli) (UniProt P0A6X3); experiment: competition; settings: BLI: 25 mM Tris pH 7.5, 50 mM NaCl, 50 mM KCl, 1 mM MgCl2, 1 mM DTT, 0-500 nM Hfq, temperature not stated; EMSA: 1x structure buffer, 1 ug yeast RNA, 37 C …
[4] = target: Hfq wild-type (Escherichia coli) (UniProt P0A6X3); experiment: BLI; settings: BLI: 25 mM Tris pH 7.5, 50 mM NaCl, 50 mM KCl, 1 mM MgCl2, 1 mM DTT, 0-500 nM Hfq, temperature not stated, EMSA: 1x structure buffer, 1 ug yeast RNA, 37 C …
[5] = target: HfqRim R19A;P21A;Q33A;Q35A;T49A;R66A (UniProt P0A6X3); experiment: BLI; settings: BLI: 25 mM Tris pH 7.5, 50 mM NaCl, 50 mM KCl, 1 mM MgCl2, 1 mM DTT, 0-500 nM Hfq, temperature not stated; EMSA: 1x structure buffer, 1 ug yeast RNA, 37 C …
Hfq66 [6] = target: Hfq66 (UniProt P0A6X3); experiment: BLI; settings: BLI: 25 mM Tris pH 7.5, 50 mM NaCl, 50 mM KCl, 1 mM MgCl2, 1 mM DTT, 0-500 nM Hfq, temperature not stated; EMSA: 1x structure buffer, 1 ug yeast RNA, 37 C …
Hfq66 [7] = experiment: BLI; settings: 1 uM RydC; BLI: 25 mM Tris pH 7.5, 50 mM NaCl, 50 mM KCl, 1 mM MgCl2, 1 mM DTT, 0-500 nM Hfq, temperature not stated; EMSA: 1x structure buffer, 1 ug yeast RNA, 37 C …; scale: fold lower affinity than without RydC

“GGCUUCCGAUGUAGACCCGUCCUCCUUCGCCUGCGUCACGGGUCCUGGUUAGACGCAGGCGUUUUCUG [RydC (crystal)]” was tested. Which binding [1] did it give?
Its binding is “binds”.

Which results are given for “GGUUCCGAUGUAGACCCGUCCUCCUUCGCCUGCGUCACGGGUCCUGGUUAGACGCAGGCGUUUUCU [RydC (EMSA transcript)]”?
binding [2]: binds; binding [3]: binds

For “GGUUGUUUAUAUUACGAUAAUUAUUAGGCAUUAACGGGAACCGGAGCGUUCCCGAUUCACCAUGGAUGGCCUUUUCGGCAAGGGCUCCUCCCUUCCUCUGUUCUACGUCGGAUAACUGGCUCACGGAAUUGUCCGUGGG [cfa1]”, which Kd [4] is on record?
Its Kd is “binds”.

What about the Kd [5] of the same substance?
Its Kd is “binds”.

And the binding (Hfq66 [6])?
The binding was “binds”.

Which binding signal (fold lower affinity than without RydC) ([4]; 1 uM RydC) does the source give for cfa1 here?
The binding signal (fold lower affinity than without RydC) was 5.

And the binding signal (Hfq66 [7])?
The binding signal was 100.
